# Measured values from US20230374132A1 (Innovent, published 2023).
# Substitutions are numbered along the chain they refer to. Numbers in names are those of the source.
# B1: hzsp34.8 (antibody, human IgG1, lambda, L234A L235A, V domains shown)
# VH: EVQLVESGGGLVQPGGSLKLSCAASGFTFNTYAMNWVRQASGKGLEWVGRIRSKYNNYATYYADSVKDRFTISRDDSKSTLYLQMNSLKTEDTAVYYCARHGNFGNSYVSWFAYWGQGTTVTVSS
# VL: QAVVTQEPSLTVSPGGTVTLTCRSSTGAVTTSNYANWFQQKPGQAPRTLIYGTNKRAPWTPARFSGSLLGGKAALTLLGAQPEDEAEYYCALWYSNLWVFGQGTKLTVLG
# notes: IgG1 L234A L235A, lambda
# B2: hzsp34.20 (antibody, human IgG1, lambda, L234A L235A, V domains shown)
# VH: B1 VH with G49A, N106Q
# VL: B1 VL with F38V, T48G, Y51G, W59G, T60V
# notes: IgG1 L234A L235A, lambda
# B3: hzsp34.23 (antibody, human IgG1, lambda, L234A L235A, V domains shown)
# VH: B1 VH
# VL: B1 VL with F38V, T48G, Y51G, W59G, T60V, G71D
# notes: IgG1 L234A L235A, lambda
# B4: hzsp34.18 (antibody, human IgG1, lambda, L234A L235A, V domains shown)
# VH: B1 VH
# VL: B1 VL with F38V, T48G, Y51G, W59G, T60V
# notes: IgG1 L234A L235A, lambda
# B5: hzsp34.15 (antibody, human IgG1, lambda, L234A L235A, V domains shown)
# VH: B1 VH with G49A, N106Q
# VL: B1 VL with F38V, Y51G, W59G, T60V
# notes: IgG1 L234A L235A, lambda
# B6: hzsp34.14 (antibody, human IgG1, lambda, L234A L235A, V domains shown)
# VH: B1 VH with N106Q
# VL: B1 VL with F38V, Y51G, W59G, T60V
# notes: IgG1 L234A L235A, lambda
# B7: hzsp34.17 (antibody, human IgG1, lambda, L234A L235A, V domains shown)
# VH: B1 VH with S79N
# VL: B1 VL with F38V, T48G, Y51G, W59G, T60V
# notes: IgG1 L234A L235A, lambda
# B8: hzsp34.10 (antibody, human IgG1, lambda, L234A L235A, V domains shown)
# VH: B1 VH with G49A, N106Q
# VL: B1 VL
# notes: IgG1 L234A L235A, lambda
# B9: hzsp34.9 (antibody, human IgG1, lambda, L234A L235A, V domains shown)
# VH: B1 VH with N106Q
# VL: B1 VL
# notes: IgG1 L234A L235A, lambda
# B10: hzsp34.22 (antibody, human IgG1, lambda, L234A L235A, V domains shown)
# VH: B1 VH with S79N
# VL: B1 VL with F38V, T48G, Y51G, W59G, T60V, G71D
# notes: IgG1 L234A L235A, lambda
# B11: hzsp34.19 (antibody, human IgG1, lambda, L234A L235A, V domains shown)
# VH: B1 VH with N106Q
# VL: B1 VL with F38V, T48G, Y51G, W59G, T60V
# notes: IgG1 L234A L235A, lambda
# B12: hzsp34.115 (antibody, human IgG1, lambda, L234A L235A, V domains shown)
# VH: B1 VH with N106Q
# VL: B1 VL with F38V, T48G, Y51G, K55S, W59G, T60V, G71D
# notes: CDR mutant of hzsp34.24; IgG1 L234A L235A, lambda
# B13: hzsp34.105 (antibody, human IgG1, lambda, L234A L235A, V domains shown)
# VH: B1 VH with N106Q
# VL: B1 VL with S32R, F38V, T48G, Y51G, W59G, T60V, G71D
# notes: as for B12
# B14: hzsp34.110 (antibody, human IgG1, lambda, L234A L235A, V domains shown)
# VH: B1 VH with N106Q
# VL: B1 VL with F38V, T48G, Y51G, W59G, T60V, G71D, N96G
# notes: as for B12
# B15: hzsp34.109 (antibody, human IgG1, lambda, L234A L235A, V domains shown)
# VH: B1 VH with N106Q
# VL: B1 VL with F38V, T48G, Y51G, W59G, T60V, G71D, S95R
# notes: as for B12
# B16: hzsp34.107 (antibody, human IgG1, lambda, L234A L235A, V domains shown)
# VH: B1 VH with N106Q
# VL: B1 VL with F38V, T48G, Y51G, W59G, T60V, G71D, W93A
# notes: as for B12
# B17: hzsp34.114 (antibody, human IgG1, lambda, L234A L235A, V domains shown)
# VH: B1 VH with N106Q
# VL: B1 VL with F38V, T48G, Y51G, W59G, T60V, G71D, S95R, N96G
# notes: as for B12
# B18: hzsp34.106 (antibody, human IgG1, lambda, L234A L235A, V domains shown)
# VH: B1 VH with N106Q
# VL: B1 VL with N33G, F38V, T48G, Y51G, W59G, T60V, G71D
# notes: as for B12
# B19: hzsp34.111 (antibody, human IgG1, lambda, L234A L235A, V domains shown)
# VH: B1 VH with N106Q
# VL: B1 VL with T30G, T31G, F38V, T48G, Y51G, W59G, T60V, G71D
# notes: as for B12
# B20: hzsp34.100 (antibody, human IgG1, lambda, L234A L235A, V domains shown)
# VH: B1 VH with N106G, S107R
# VL: B1 VL with F38V, T48G, Y51G, W59G, T60V, G71D
# notes: as for B12
# B21: hzsp34.103 (antibody, human IgG1, lambda, L234A L235A, V domains shown)
# VH: B1 VH with N106Q
# VL: B1 VL with T30G, F38V, T48G, Y51G, W59G, T60V, G71D
# notes: as for B12
# B22: hzsp34.112 (antibody, human IgG1, lambda, L234A L235A, V domains shown)
# VH: B1 VH with N106Q
# VL: B1 VL with S32R, N33G, F38V, T48G, Y51G, W59G, T60V, G71D
# notes: as for B12
# B23: hzsp34.102 (antibody, human IgG1, lambda, L234A L235A, V domains shown)
# VH: B1 VH with N106Q
# VL: B1 VL with R23G, F38V, T48G, Y51G, W59G, T60V, G71D
# notes: as for B12
# B24: hzsp34.113 (antibody, human IgG1, lambda, L234A L235A, V domains shown)
# VH: B1 VH with N106Q
# VL: B1 VL with F38V, T48G, Y51G, W59G, T60V, G71D, W93A, Y94A
# notes: as for B12
# B25: hzsp34.101 (antibody, human IgG1, lambda, L234A L235A, V domains shown)
# VH: B1 VH with N106Q, Y108A, V109A
# VL: B1 VL with F38V, T48G, Y51G, W59G, T60V, G71D
# notes: as for B12
# B26: hzsp34.99 (antibody, human IgG1, lambda, L234A L235A, V domains shown)
# VH: B1 VH with F104A, G105Y, N106Q
# VL: B1 VL with F38V, T48G, Y51G, W59G, T60V, G71D
# notes: as for B12
# B27: hzsp34.108 (antibody, human IgG1, lambda, L234A L235A, V domains shown)
# VH: B1 VH with N106Q
# VL: B1 VL with F38V, T48G, Y51G, W59G, T60V, G71D, Y94A
# notes: as for B12
# B28: hzsp34.104 (antibody, human IgG1, lambda, L234A L235A, V domains shown)
# VH: B1 VH with N106Q
# VL: B1 VL with T31G, F38V, T48G, Y51G, W59G, T60V, G71D
# notes: as for B12
# Biological target: T1, cynomolgus monkey CD3 E&D complex protein (Sino Biological Inc., CT032-00323H) (cynomolgus monkey, UniProt Q95LI5 22-117; Q95LI8 22-105)
# T1 construct: bought heterodimer
# Test: BLI, antibody on sensor
# Description: (§1) 100 μl SD buffer, various antibodies, human CD3 E&D complex protein (Sino Biological Inc., CT026H0323H), and cynomolgus monkey CD3 E&D complex protein (Sino Biological Inc., CT032-00323H) were added into 96-well black polystyrene semi-quantitative micro-well plate (Greiner, 675076) respectively. Fortebio Octet Red 96 was used for detection, and the sensor position was selected according to the sample position. The setting parameters of the instrument are as follows: operation steps: Baseline, Loading-1 nm, Baseline, Association and Dissociation; the operation time of each step depends on the speed of sample association and dissociation. The rotational speed is 1000 rpm and the temperature is 30° C. ForteBio Octet analysis software was used to analyze KD value.
# T1 sequence (Q95LI5 22-117, chain 1 of 2): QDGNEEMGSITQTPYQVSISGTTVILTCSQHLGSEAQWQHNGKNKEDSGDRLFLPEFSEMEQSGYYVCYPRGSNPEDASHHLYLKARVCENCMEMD
# T1 sequence (Q95LI8 22-105, chain 2 of 2): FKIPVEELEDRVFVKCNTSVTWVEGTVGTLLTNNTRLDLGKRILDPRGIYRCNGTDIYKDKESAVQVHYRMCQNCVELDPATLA
Binder,binding result,Kd,koff,kon
B1,no binding,–,–,–
B2,–,0.756 nM,0.0011 s⁻¹,1.46e+06 M⁻¹ s⁻¹
B3,–,0.605 nM,0.000791 s⁻¹,1.31e+06 M⁻¹ s⁻¹
B4,–,0.67 nM,0.00088 s⁻¹,1.31e+06 M⁻¹ s⁻¹
B5,–,1.75 nM,0.00115 s⁻¹,658000 M⁻¹ s⁻¹
B6,–,0.195 nM,9.49e-05 s⁻¹,488000 M⁻¹ s⁻¹
B7,–,0.514 nM,0.000915 s⁻¹,1.78e+06 M⁻¹ s⁻¹
B8,no binding,–,–,–
B9,no binding,–,–,–
B10,–,0.585 nM,0.000886 s⁻¹,1.52e+06 M⁻¹ s⁻¹
B11,–,0.602 nM,0.00099 s⁻¹,1.64e+06 M⁻¹ s⁻¹

# Biological target: T2, human CD3 E&D complex protein (Sino Biological Inc., CT026H0323H) (human, UniProt P07766 23-126; P04234 22-105)
# T2 construct: bought heterodimer; also called human CD3 protein (CT026H0323H)
# Test: BLI, antibody on sensor
# Description: as §1
# T2 sequence (P07766 23-126, chain 1 of 2): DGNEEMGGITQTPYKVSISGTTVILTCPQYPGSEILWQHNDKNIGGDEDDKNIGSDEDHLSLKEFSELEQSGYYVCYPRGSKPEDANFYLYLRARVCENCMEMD
# T2 sequence (P04234 22-105, chain 2 of 2): as the sequence (Q95LI8 22-105, chain 2 of 2) above, with V5I, K15N, V20I, T32S, N33D, N34I, A64T, N74S, L83V counted along it
Binder,binding result,Kd,koff,kon
B1,no binding,–,–,–
B2,–,0.847 nM,0.00275 s⁻¹,3.25e+06 M⁻¹ s⁻¹
B3,–,0.554 nM,0.00198 s⁻¹,3.57e+06 M⁻¹ s⁻¹
B4,–,0.629 nM,0.00208 s⁻¹,3.31e+06 M⁻¹ s⁻¹
B5,–,3.13 nM,0.00202 s⁻¹,644000 M⁻¹ s⁻¹
B6,–,2.41 nM,0.00159 s⁻¹,661000 M⁻¹ s⁻¹
B7,–,0.51 nM,0.00206 s⁻¹,4.04e+06 M⁻¹ s⁻¹
B8,no binding,–,–,–
B9,no binding,–,–,–
B10,–,0.605 nM,0.00214 s⁻¹,3.54e+06 M⁻¹ s⁻¹
B11,–,0.613 nM,0.00233 s⁻¹,3.8e+06 M⁻¹ s⁻¹

# Biological target: T3, human CD3E&G complex (Sino Biological Inc., CT041-H0305H) (human, UniProt P07766 23-126; P09693 23-116)
# T3 construct: bought heterodimer; also called human CD3E&G antigen
# Test: BLI, antibody on sensor
# T3 sequence (P07766 23-126, chain 1 of 2): as the sequence (P07766 23-126, chain 1 of 2) above
# T3 sequence (P09693 23-116, chain 2 of 2): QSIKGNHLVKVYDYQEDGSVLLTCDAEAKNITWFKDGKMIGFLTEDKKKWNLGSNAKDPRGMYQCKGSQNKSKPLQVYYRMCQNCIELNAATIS
Binder,Kd,koff,kon,binding result
B12,7.7 nM,0.00184 s⁻¹,238000 M⁻¹ s⁻¹,–
B13,10.6 nM,0.0021 s⁻¹,199000 M⁻¹ s⁻¹,–
B14,8.49 nM,0.00188 s⁻¹,222000 M⁻¹ s⁻¹,–
B15,9.02 nM,0.0021 s⁻¹,233000 M⁻¹ s⁻¹,–
B16,59.8 nM,0.00446 s⁻¹,74600 M⁻¹ s⁻¹,–
B17,6.69 nM,0.00134 s⁻¹,200000 M⁻¹ s⁻¹,–
B18,10.3 nM,0.00237 s⁻¹,230000 M⁻¹ s⁻¹,–
B19,9.5 nM,0.00191 s⁻¹,201000 M⁻¹ s⁻¹,–
B20,8.33 nM,0.00171 s⁻¹,205000 M⁻¹ s⁻¹,–
B21,7.57 nM,0.00191 s⁻¹,253000 M⁻¹ s⁻¹,–
B22,6.6 nM,0.00155 s⁻¹,235000 M⁻¹ s⁻¹,–
B23,8.52 nM,0.0019 s⁻¹,222000 M⁻¹ s⁻¹,–
B24,3.71 nM,0.000811 s⁻¹,219000 M⁻¹ s⁻¹,–
B25,4.3 nM,0.000636 s⁻¹,148000 M⁻¹ s⁻¹,–
B26,–,–,–,no binding
B27,7.19 nM,0.00146 s⁻¹,203000 M⁻¹ s⁻¹,–
B28,8.54 nM,0.00198 s⁻¹,231000 M⁻¹ s⁻¹,–

# Biological target: T2, human CD3 E&D complex protein (Sino …)
# Test: BLI, antibody on sensor
# Remark: another data set of the same source
Binder,Kd,koff,kon
B12,1.26 nM,0.000331 s⁻¹,264000 M⁻¹ s⁻¹
B13,1.3 nM,0.000307 s⁻¹,235000 M⁻¹ s⁻¹
B14,0.951 nM,0.0002 s⁻¹,210000 M⁻¹ s⁻¹
B15,1.15 nM,0.000258 s⁻¹,225000 M⁻¹ s⁻¹
B16,8.44 nM,0.00141 s⁻¹,167000 M⁻¹ s⁻¹
B17,1.08 nM,0.000282 s⁻¹,262000 M⁻¹ s⁻¹
B18,1.54 nM,0.000365 s⁻¹,236000 M⁻¹ s⁻¹
B19,1.94 nM,0.000454 s⁻¹,235000 M⁻¹ s⁻¹
B20,1.13 nM,0.000276 s⁻¹,243000 M⁻¹ s⁻¹
B21,1.34 nM,0.000325 s⁻¹,243000 M⁻¹ s⁻¹
B22,0.722 nM,0.000204 s⁻¹,282000 M⁻¹ s⁻¹
B23,1.69 nM,0.000423 s⁻¹,250000 M⁻¹ s⁻¹
B24,1.02 nM,0.0002 s⁻¹,196000 M⁻¹ s⁻¹
B25,3.77 nM,0.00082 s⁻¹,217000 M⁻¹ s⁻¹
B26,9.63 nM,0.0011 s⁻¹,114000 M⁻¹ s⁻¹
B27,0.965 nM,0.0002 s⁻¹,207000 M⁻¹ s⁻¹
B28,1.93 nM,0.000542 s⁻¹,281000 M⁻¹ s⁻¹
